Experiments:
[1] = tested on: growth-arrested HepG2 cells; experiment: Arrayed DTS screen in growth-arrested HepG2 cells; GFP intensity by live-cell imaging; type: cell-based; settings: 24 h post-transfection
Text: DNA construct design. Each DTS was constructed in pentameric repeat using a 15 bp spacer between each TFBS. The DTS was appended just 5′ to the promoter, effectively in a putative enhancer region. Various promoters were employed in these constructs, including CBh (a variant of the CAG promoter) and TTR. Several reporter genes were employed in these constructs, including enhanced Green Fluorescent Protein (eGFP). The polyadenylation (polyA) signal is a BGH-PolyA sequence. For pooled screening, unique molecular identifiers (UMIs; also known as barcodes) were used to distinguish between DNA constructs in a pool, and the UMIs were appended to the 3′UTR immediately downstream of the stop codon of eGFP, just preceding the BGH-PolyA sequence.
Cell culture. HepG2 cells were plated into a 384-well plate and grown for 48 hours to achieve confluency. Cell media was removed and replaced with culture media supplemented with Aphidicolin (1 uM) using EL406 automated plate washer and dispenser, then cells were transfected with DTS containing 17.5 ng plasmids using Lipofectamine 3000 without supplement. Expression of GFP was monitored using a Biotek Cytation 5 cell imaging reader over 24 hours to evaluate DTS activity. Total GFP per well was calculated and averaged over 4 well replicates.
pDNAs containing various DTSs (Table 12) were transfected individually into growth-arrested HepG2 cells. Cell growth was inhibited to prevent dissolution of the nuclear envelope. GFP expression was quantified over a period of 24 h post-transfection by measuring GFP intensity using quantitative live-cell imaging. Statistical analysis and hierarchical clustering methods were used to easily differentiate strong DTSs from weak DTSs in a heatmap (FIG. 5A). […] DTS.203: CREB1, PPARA, ONECUT1, HNF4A, PPARA. DTS.233: HNF1A, NR113, PPARA, HNF1A, PPARA. DTS.276: FOXA1, HNF4A, HNF1A, HNF4A, HNF1A.
For the arrayed screen, pDNAs containing various DTSs were transfected individually into growth-arrested HepG2 cells. For the pooled screen, pDNAs containing various DTSs were pooled together and transfected as a pool into growth-arrested HepG2 cells. Cell growth was inhibited to prevent dissolution of the nuclear envelope, which improves the accuracy of measuring DTS activity related to nuclear translocation. For the arrayed screen, GFP protein expression was quantified 24 h post-transfection by measuring GFP intensity using quantitative live-cell imaging. For the pooled screen, mRNA abundance for each DTS variant was determined using RNA-seq by deconvoluting the read counts for each UMI. A strong correlation between protein expression in the arrayed screen and mRNA expression in the pooled screen was observed (FIG. 6). […] Pooled screening can thus be used to quickly and reliably identify strong DTSs.

mouse liver = experiment: Pooled DTS pDNA-LNP i.v. in mice; mRNA abundance in liver by RNA-seq; type: in vivo; settings: 1 d post-dose, pDNA-LNP 0.66 mg/kg i.v.
Method: LNP formulation. LNPs encapsulating nucleic acid payloads were prepared by mixing an organic solution of lipids with an aqueous solution of nucleic acid (e.g., DNA only, mRNA only, or DNA/mRNA mixtures) as described in Prud′homme et al. (J Pharm Sci 2018). Briefly, the lipidic excipients mixture (ionizable lipid, helper lipid, cholesterol, PEG-lipid and potentially other targeting moieties) is dissolved in an organic solvent. An aqueous solution of the nucleic acid is prepared in a low pH buffer of range pH 3.0-4.0. The lipid mixture is then mixed with the aqueous nucleic acid solution at a flow ratio of 1:3 (V/V) using a commercially available mixer device. […] Particle size is determined by dynamic light scattering (Horiba nanoPartica SZ-100). Encapsulation efficiency is calculated by using Quant-it RiboGreen assay kit.
Quantification of mRNA abundance from pooled DTS screens. […] The PCR amplified cDNA was then library prepped (NEBNext library prep for Illumina) and sequenced on an Illumina Miseq (2×150 bp reads). Counts for each UMI were translated into the corresponding DTS using the UMI/Barcode registry and changes in abundance of each DTS were statistically analyzed using a custom R script. The log 2 fold change is calculated by comparing the RNA level in the pool vs. its expected abundance, which is derived from the abundance in the corresponding input DNA pool. […]

B1: NFKB: benchmark DTS with NF-κB binding sites in pentameric repeat (SEQ ID NO: 140) (nucleic acid)
DNA: GGGACTTTCCAGATTACTACTGATAGGGACTTTCCAGATTACTACTGATAGGGACTTTCCAGATTACTACTGATAGGGACTTTCCAGATTACTACTGATAGGGACTTTCC
modifications: DNA nuclear targeting sequence within DNA cargo construct, further chemistry not given here
- GFP intensity / gene expression in arrayed screen compared to Spacer negative control [1]: robust increases
- mRNA abundance in mouse liver compared to Spacer negative control (mouse liver): largest and most statistically significant increase

From patent US20260234655A1, “Nuclear Targeted DNA Delivery and Compositions for Use in Practicing the Same” (Seawolf Therapeutics, Inc., priority 2022, published 2026)
